T1: YTHDF3 YTH domain (UniProt Q7Z739 Q7Z739:391-585)
T1 sequence: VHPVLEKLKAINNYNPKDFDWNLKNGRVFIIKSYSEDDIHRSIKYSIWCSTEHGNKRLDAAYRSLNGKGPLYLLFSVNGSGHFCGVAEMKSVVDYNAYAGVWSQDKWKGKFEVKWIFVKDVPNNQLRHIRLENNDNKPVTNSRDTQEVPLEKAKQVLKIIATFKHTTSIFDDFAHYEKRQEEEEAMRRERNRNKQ

T2: YTHDF2 YTH domain (UniProt Q9Y5A9 Q9Y5A9:383-553)
T2 sequence: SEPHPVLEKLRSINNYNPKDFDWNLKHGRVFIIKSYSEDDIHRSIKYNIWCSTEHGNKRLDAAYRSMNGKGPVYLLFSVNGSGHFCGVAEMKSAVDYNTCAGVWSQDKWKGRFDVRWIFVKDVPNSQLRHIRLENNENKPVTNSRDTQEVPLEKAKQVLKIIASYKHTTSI

T3: YTHDF1 YTH domain (UniProt Q9BYJ9 Q9BYJ9:375-552)
T3 sequence: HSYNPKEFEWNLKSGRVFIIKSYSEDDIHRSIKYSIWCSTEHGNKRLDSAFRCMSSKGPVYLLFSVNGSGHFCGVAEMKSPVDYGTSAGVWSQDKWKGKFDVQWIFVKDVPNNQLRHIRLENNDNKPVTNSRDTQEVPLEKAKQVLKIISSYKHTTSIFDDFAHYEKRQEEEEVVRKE

T4: YTHDC2 YTH domain (UniProt Q9H6S0 Q9H6S0:1285-1424)
T4 sequence: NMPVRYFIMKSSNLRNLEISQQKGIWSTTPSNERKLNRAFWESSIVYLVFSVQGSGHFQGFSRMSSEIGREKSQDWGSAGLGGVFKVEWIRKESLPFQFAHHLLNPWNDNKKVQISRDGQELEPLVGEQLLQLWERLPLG


Columns and labels:
YTHDF3 YTH domain [1] = molecular target: T1, YTHDF3 YTH domain; test: FP; value only in figure; 25 mM Tris-HCl pH 7.5, 150 mM NaCl; settings: tags: N-terminal His-tag (pET28a), E. coli BL21(DE3); label: 5'-FAM
Description: (§1) Fluorescence polarization (FP) experiments were performed following the previously reported FP assay conditions for FAM-labeled RNA and YTH domains. Briefly, experiments were conducted in the binding buffer containing 25 mM Tris-HCl, pH 7.5, and 150 mM NaCl[50]. The same binding buffer was used in this study unless otherwise specified. RNA samples were diluted to 50 nM from the stock solutions by the binding buffer. YTH domain proteins were thawed, buffer exchanged into the binding buffer at 4° C. using the 10 kDa-cutoff concentrators (Sigma-Aldrich), and adjusted to 2× of the highest concentration used in the binding assay. […] RNase inhibitor (SUPERaseIn, Invitrogen) was added. 40 L protein solutions with various concentrations were prepared by serial dilution using the binding buffer. Subsequently, we added 40 L diluted RNA into each 40 L protein solution, mixed, and incubated at room temperature for 30 minutes. The final concentration of FAM-m⁶A-RNA or FAM-A-RNA was constant at 25 nM, and the YTH-domain protein concentrations varied from 10 nM to 24 μM. […] After incubation, samples were transferred to a black polypropylene 384-well round-bottom plate (Cellvis) and FP was measured on a Synergy™ Neo2 Multimode Microplate Reader at the wavelength of 485/20 nm for excitation and 528/20 nm for emission at 25° C.

YTHDF2 YTH domain [2] = molecular target: T2, YTHDF2 YTH domain; test: as above; settings: tags: N-terminal His-tag (pET28a), E. coli BL21(DE3); label: 5'-FAM
Description: as §1

FTO = FTO (UniProt Q9C0B1 Q9C0B1:1-505); test: FP; value only in figure; 50 mM borate pH 7.5; settings: tags: His-tag (Ni resin purified), E. coli BL21(DE3); label: 5'-FAM
FTO, sequence (Q9C0B1 whole entry, the tested form may be a part, one chain of several): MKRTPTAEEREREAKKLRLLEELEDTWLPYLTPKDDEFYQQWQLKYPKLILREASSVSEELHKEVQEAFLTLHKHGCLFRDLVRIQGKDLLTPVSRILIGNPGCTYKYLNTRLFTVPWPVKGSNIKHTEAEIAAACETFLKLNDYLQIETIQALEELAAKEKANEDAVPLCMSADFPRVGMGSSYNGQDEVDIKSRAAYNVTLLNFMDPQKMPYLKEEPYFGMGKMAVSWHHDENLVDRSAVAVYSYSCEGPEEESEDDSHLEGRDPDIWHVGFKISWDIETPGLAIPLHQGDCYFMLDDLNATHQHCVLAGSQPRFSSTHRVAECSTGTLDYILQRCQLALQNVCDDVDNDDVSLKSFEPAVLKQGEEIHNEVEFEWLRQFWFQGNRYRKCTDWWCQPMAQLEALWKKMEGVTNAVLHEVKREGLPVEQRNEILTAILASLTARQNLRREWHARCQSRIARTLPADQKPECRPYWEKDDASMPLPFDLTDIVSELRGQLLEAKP

YTHDF1 YTH domain = molecular target: T3, YTHDF1 YTH domain; test: FP; 25 mM Tris-HCl pH 7.5, 150 mM NaCl, 25 C; settings: tags: N-terminal His-tag (pET28a), E. coli BL21(DE3); label: 5'-FAM
Description: as §1

YTHDC1 YTH domain [3] = molecular target: T5, YTHDC1 YTH domain (UniProt Q96MU7 Q96MU7:345-509); test: EMSA; 20 nM protein, 25 nM RNA, 10 mM HEPES, 50 mM KCl, 1 mM EDTA; complex inhibited by N-7
YTHDC2 YTH domain = molecular target: T4, YTHDC2 YTH domain; test: competition; value only in figure; 10 uM protein, 25 nM FAM-m6A-RNA; settings: tags: N-terminal His-tag (pET28a), E. coli BL21(DE3); label: FAM
Description: To set up the FP competition assay, we first used the non-fluorescent “m⁶A-RNA” (FIG. 1C) as a positive control inhibitor. […] Samples were transferred onto the 384-well plate and measured on the plate reader as described above. We obtained the dose-response curves by plotting the FP values against concentrations of inhibitors. The inhibitory curves and IC₅₀ values were obtained using the “Dose-response Inhibition” model in GraphPad Prism6.0™.

YTHDF3 YTH domain [4] = molecular target: T1, YTHDF3 YTH domain; test: competition; value only in figure; 2 uM protein, 25 nM FAM-m6A-RNA; settings: tags: N-terminal His-tag (pET28a), E. coli BL21(DE3); label: 5'-biotin
YTHDC1 YTH domain [5] = molecular target: T5, YTHDC1 YTH domain; test: as above
YTHDF2 YTH domain [6] = molecular target: T2, YTHDF2 YTH domain; test: as above; settings: tags: N-terminal His-tag (pET28a), E. coli BL21(DE3); label: 5'-biotin

| Binder | binding result (YTHDF3 YTH domain [1]) | binding result (YTHDF2 YTH domain [2]) | binding result (FTO) | Kd (YTHDF1 YTH domain) [nM] | binding result (YTHDC1 YTH domain [3]) | binding result (YTHDC2 YTH domain) | binding result (YTHDF3 YTH domain [4]) | binding result (YTHDC1 YTH domain [5]) | binding result (YTHDF2 YTH domain [6]) |
| --- | --- | --- | --- | --- | --- | --- | --- | --- | --- |
| GAACCGGACUGUCUUA (ssRNA, m6A at position 8) [FAM-m6A-RNA] | binds | binds | binds | 800 | binds |  |  |  |  |
| GAACCGGACUGUCUUA (ssRNA, m6A at position 8) [m6A-RNA (non-fluorescent)] |  |  |  |  |  | binds | binds | binds | binds |

— US20250144104, “DISCOVERY OF A NEW INHIBITOR FOR THE YTH DOMAIN-CONTAINING M6A RNA READERS” (The Trustees of Boston College, published 2025)
